Measurements published in publication PMC6003225 (Molecular Biology of the Cell, 2018).

Biological target: T1, Danio rerio CPAP G-box domain (DrCPAP_(G-box), amino acids 943–1121) (Danio rerio, UniProt E7FCY1 943-1121)
T1 sequence (looked up): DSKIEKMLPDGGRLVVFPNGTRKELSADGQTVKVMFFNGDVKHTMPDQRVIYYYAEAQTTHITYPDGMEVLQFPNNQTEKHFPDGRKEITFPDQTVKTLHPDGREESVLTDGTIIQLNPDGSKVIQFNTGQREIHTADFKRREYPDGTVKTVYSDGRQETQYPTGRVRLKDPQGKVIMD
Test: ITC

Kd: 34 ± 4 µM
B1: C. elegans SAS-5 fragment corresponding to amino acids 2–122 (SAS-5N) (domain or fragment, UniProt Q20010 2-122, looked up)
chain: NNYDDLPCSIYFKKPTVQEFVDQPRVFEDSEVPAFQEVLQLPQERTKPPVPSTQPIVAAVEVAKKKSCLSAPKPRKEPPSHPALRQKTVAFGKTVNVSQTVEGTSRNSKKVLASTMSAQNT
